Source: patent US20210395381A1 (OSSIANIX, published 2021)
Changes are numbered by the printed parent chain.

B1: Clone 48 (VNAR)
VNAR: ARVDQTPRSVTKETGESLTINCVLRDASYELGSTCWYRKKSGSTNEESISKGGRYVETVNSGSKSFSLRINDLTVEDGGTYRCGASFMLSHPGGCDSCVIMCQTRRQGVAACGDGTAVTVNA
notes: VNAR on phage
B2: Clone 42 (VNAR)
VNAR: ARVDQTPQTITKETGESLTINCVLRDSNCELSSTYWYRKKSGSTNEARISKGGRYVETVNSGSKSFSLRINDLTVEDSGTYRCKVRKALVQSQSCCQPLHRDVYGDGTAVTVNA
notes: VNAR on phage
B3: Clone 55 (VNAR)
VNAR: PRVDQTPQTITKETGESLTINCVLRDSNCALSSTLWYRTKSGSRNEESISKGGRYVETVNSGSKSFSLRINDLTVEDSGTYRCNVWCLTLGCSGKWDVYGGGTAVTVNA
notes: VNAR on phage
B4: Clone 46 (VNAR)
VNAR: ARVDQTPRVTKETGESLTINCVLRDASYELGSTCWYRKKSGSTNEESISKGGRYVETVNSGSKSFSLRINDLTVEDGGTYRCGASGSQGQVYRCDRLTLCCLQMQWQVAACGDGTAVTVNA
notes: VNAR on phage
B5: Clone 51 (VNAR)
VNAR: ARVDQTPQTITKETGESLTINCVLRDSNCALSSTLWYRTKSGSRNEESISKGGRYVETVNSGSKSFSLRINDLVVEDSGTYRCKVSHSGLCQYCHDLEDDVYGDGTAVTVNA
notes: VNAR on phage
B6: Clone 52 (VNAR)
VNAR: PRVDQTPQTITKETGESLTINCVLRDSNCALSSTYWYRKKSGSTNEENISKGGRYVETVNSGSKSFSLRINDLTVEDSGTYRCNVAFFACQYKNDVYGGGTVVTVNA
notes: VNAR on phage
B7: Clone 53 (VNAR)
VNAR: ARVDQTPQTITKETGESLTINCVLRDSNCALSSTYWYRKKSDSTNEESISKGGRYVETVNSGSKSFSLRINDLTVKDSGTYRCNVYLQDRPVCSPFNYDVYGGGTAVTVNA
notes: VNAR on phage
B8: Clone 32 (VNAR)
VNAR: ARVDQTPQTITKETGESLTINCVLRDSNCALSSTYWYRKKSGSTNEENISKGGRYVETVNSGSKSFSLRINDLTVEDSGTYRCNVQDMLTPNDGQLWDVYGDGTAVTVNA
notes: VNAR on phage
B9: Clone 44 (VNAR)
VNAR: ARVDQTPRSVTKETGESLTINCVLRDASYELGSTCWYRKKSGSTNEESISKGGRYVETVNSGSKSFSLRINDLTVEDGGTYRCGAGSVQRSTSQCDRLWSRCWRTRFKIAACGDGTAVTVNA
notes: VNAR on phage
B10: Clone 56 (VNAR)
VNAR: ARVDQTPQTITKETGESLTINCVLRDSNCALSSTYWYRKKSDSTNEESISKGGRYVETVNSGSKSFSLRINDLVVEDSGTYRCNVQSKEKLHCQVVVDVYGGGTAVTVNA
notes: VNAR on phage
B11: Clone 33 (VNAR)
VNAR: PRVDQTPQTITKETGESLTINCVLRDSNCALSNLYWYRKKSGSTNEESISKGGRYVETVNSGSKSFSLRINDLTVEDSGTYRCNVLVGMLSGCGFQRGDVYGGGTAVTVNA
notes: VNAR on phage
B12: Clone 49 (VNAR)
VNAR: ARVDQTPQTITKETGESLTINCVLRDSNCALPSTYWYRKKSGSTNEESISKGGRYVETVNSGSKSFSLKINDLTVEDSGTYRCNVQGRAAYSGLVCDVYGGGTAVTVNA
notes: VNAR on phage
B13: Clone 57 (VNAR)
VNAR: B12 VNAR with K69R, Q86R, R88F, A89K, A90Q, Y91C, S92Y, G93D, V95R, C96L
notes: VNAR on phage
B14: Clone 41 (VNAR)
VNAR: ARVDQTPQTITKETGESLTINCVLRDSNCALSNLYWYRKKSGSTNEESISLGGRYVETVNSGSKSFSLRINDLTVEDSGTYRCKVTCEVALQPYYGQEPTQDVYGGGTVVTVNA
notes: VNAR on phage
B15: Clone 45 (VNAR)
VNAR: AVDQTPQTITKETGESLTINCVLRDSNCALSNLYWYRKKSDSTNEESISKGGRYVETVNSGSKSFSLRINDLTVEDSGTYRCNVCWWFSSRCTTCDVYGDGTAVTVNA
notes: VNAR on phage
B16: Clone 59 (VNAR)
VNAR: ARVDQTPQTITKETGESLTINCVLRDSNCALPSTYWYRKKSGSTNEESISKGGRYVETVNSGSKSFSLRINDLTVEDSGTYRCNVSLQFCCLSFDVYGGGTAVTVNA
notes: VNAR on phage
B17: Clone 38 (VNAR)
VNAR: B16 VNAR with R69K, S86R, L87I, Q88I, F89Q, L92V, F94Q, A102V
notes: VNAR on phage
B18: Clone 50 (VNAR)
VNAR: B16 VNAR with G42D, E76K, S86L, L87I, F89C, C91S, L92P, S93T, F94C
notes: VNAR on phage
B19: Clone 54 (VNAR)
VNAR: ARVDQTPQTITKETGESLTINCVLRDSNCALPITYWYRKKSGSTNEESISKGGRYVETVNSGSKSFSLRINDLTVKDSGTYRCNVGAQYCDREISDVYGDGTAVTVNA
notes: VNAR on phage
B20: Clone 58 (VNAR)
VNAR: ARVDQTPQTITKETGESLTINCVLRDSNCELSSTYWYRKKSGSTNEARISKGGRYVETVNSGSKSFSLRINDLTVEDSGTYRCNVGFSQSWGNSVGIVDVYGGGTAVTVNE
notes: VNAR on phage
B21: Clone 47 (VNAR)
VNAR: PRVDQTPQTITKETGESLTINCVLRDSNCALPSTYWYRKKSGSTNEENISKGGRYVETVNSGSKSFSLKINDLTVEDSGTYRCNVIINPLSCYYLQLQDVYGGGTAVTVNA
notes: VNAR on phage
B22: Clone 8.130 (VNAR)
VNAR: ARVDQTPQTITKETGESLTINCVLRDSNCALPSTYWYRKKSGSTNEESISKGGRYVETVNSGSKSFSLRINDLTVEDSGTYRCKVIAQLSSILRGCNYAHLDVYGDGTAVTVNA
notes: VNAR on phage; Clone 8 framework
B23: Clone 8.143 (VNAR)
VNAR: B22 VNAR with S90H, S91C, I92M, A99R, H100K, L101H
notes: as for B22
B24: Clone 8.145 (VNAR)
VNAR: B22 VNAR with R94Q, G95P, N97Y, A99R, H100K, L101H
notes: as for B22
B25: Clone 8.144 (VNAR)
VNAR: B22 VNAR with I92G, L93H, A99R, H100K, L101H
notes: as for B22
B26: Clone 8.142 (VNAR)
VNAR: B22 VNAR with S90H, S91A, I92N, A99R, H100K, L101H
notes: as for B22
B27: Clone 8.139 (VNAR)
VNAR: B22 VNAR with I86D, Q88H, A99R, H100K, L101H
notes: as for B22
B28: Clone 8.138 (VNAR)
VNAR: B22 VNAR with I92L, L93S, R94F, A99R, H100K, L101H
notes: as for B22
B29: Clone 8.134 (VNAR)
VNAR: B22 VNAR with I86D, A87L, Q88T, A99R, H100K, L101H
notes: as for B22
B30: Clone 8.133 (VNAR)
VNAR: B22 VNAR with I92R, L93E, R94L, A99R, H100K, L101H
notes: VNAR on phage; Clone 8 framework; same CDR3 as 8.104
B31: Clone 8.131 (VNAR)
VNAR: B22 VNAR with A99L, H100D
notes: as for B22
B32: Clone 8.141 (VNAR)
VNAR: B22 VNAR with Q88K, L89A, A99R, H100K, L101H
notes: as for B22
B33: Clone 8.132 (VNAR)
VNAR: B22 VNAR with A99M, L101P
notes: as for B22
B34: Clone 8.147 (VNAR)
VNAR: B22 VNAR with N97E, Y98G, A99D, H100K, L101H
notes: as for B22
B35: Clone 8.136 (VNAR)
VNAR: B22 VNAR with I92A, L93G, R94I, A99R, H100K, L101H
notes: as for B22
B36: Clone 8.140 (VNAR)
VNAR: B22 VNAR with Q88I, L89T, S90L, A99R, H100K, L101H
notes: as for B22
B37: Clone 8.135 (VNAR)
VNAR: B22 VNAR with S90F, S91P, I92P, A99R, H100K, L101H
notes: as for B22
B38: Clone 8.146 (VNAR)
VNAR: B22 VNAR with N97E, Y98A, A99R, H100K, L101H
notes: as for B22
B39: Clone 8.148 (VNAR)
VNAR: B22 VNAR with A99E, L101H
notes: as for B22

Target: T1, recombinant mouse TfR-1 (mouse, UniProt Q62351 89-763)
T1 construct: Bought recombinant protein; also called mTfR1
Test: phage ELISA
Experimental: After the third round of selection, instead of pooling bacterial colonies, individual phagemid clones were grown in 1 ml of 2TY medium containing glucose and ampicillin in 96-well blocks and used to rescue the phages. After an overnight culturing, bacteria were spun down and an aliquot of the phage supernatant was sent for Sanger sequencing (Genewiz); VNAR CDR3 sequences were identified using BioEdit (a sequence alignment editor). Another aliquot was blocked with 2.5% milk for phage ELISAs. High-binding ELISA plates (Greiner) were coated with 1 μg/ml of recombinant human or mouse TfR-1. The plates were then blocked with 2.5% milk in PBST. Blocked phages were added to the blocked plates and the VNAR-phage clones binding to the antigens were detected with HRP-labelled anti-M13 coat protein antibodies (Sino Biological), and chromogenic TMB substrate (KLM)
T1 sequence (Q62351 89-763 limits assumed): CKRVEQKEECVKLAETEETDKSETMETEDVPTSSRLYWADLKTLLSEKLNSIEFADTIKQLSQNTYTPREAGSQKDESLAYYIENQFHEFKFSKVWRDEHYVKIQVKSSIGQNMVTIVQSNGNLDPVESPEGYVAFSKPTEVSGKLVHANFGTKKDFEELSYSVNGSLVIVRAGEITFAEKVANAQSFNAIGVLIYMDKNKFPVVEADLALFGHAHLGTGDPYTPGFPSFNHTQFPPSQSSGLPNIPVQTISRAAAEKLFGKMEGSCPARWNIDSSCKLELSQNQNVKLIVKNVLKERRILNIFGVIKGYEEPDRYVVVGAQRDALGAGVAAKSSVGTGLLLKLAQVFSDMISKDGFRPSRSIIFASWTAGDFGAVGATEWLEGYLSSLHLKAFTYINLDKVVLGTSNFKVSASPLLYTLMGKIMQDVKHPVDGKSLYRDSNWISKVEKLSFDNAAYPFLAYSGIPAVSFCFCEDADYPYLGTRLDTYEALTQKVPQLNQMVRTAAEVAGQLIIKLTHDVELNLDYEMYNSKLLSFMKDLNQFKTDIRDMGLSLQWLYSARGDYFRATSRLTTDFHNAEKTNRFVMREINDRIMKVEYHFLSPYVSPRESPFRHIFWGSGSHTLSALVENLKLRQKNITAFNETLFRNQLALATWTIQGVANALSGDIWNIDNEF

Row | Binder | binding result
1 | B1 | no binding
2 | B2 | no binding
3 | B3 | no binding
4 | B4 | no binding
5 | B5 | no binding
6 | B6 | no binding
7 | B7 | no binding
8 | B8 | no binding
9 | B9 | no binding
10 | B10 | no binding
11 | B11 | no binding
12 | B12 | no binding
13 | B13 | no binding
14 | B14 | no binding
15 | B15 | no binding
16 | B16 | no binding
17 | B17 | no binding
18 | B18 | no binding
19 | B19 | no binding
20 | B20 | no binding
21 | B21 | no binding

Target: T2, recombinant mouse TfR-1 (mouse, UniProt Q62351 89-763)
T2 construct: Recombinant protein coated at 1 ug/ml in the phage ELISA; also called mTfR1; mouse transferrin receptor-1
Test: phage ELISA
T2 sequence (Q62351 89-763 limits assumed): as above

Row | Binder | A450
22 | B22 | 0.047 A450
23 | B23 | 0.045 A450
24 | B24 | 0.045 A450
25 | B25 | 0.045 A450
26 | B26 | 0.045 A450
27 | B27 | 0.045 A450
28 | B28 | 0.046 A450
29 | B29 | 0.046 A450
30 | B30 | 0.047 A450
31 | B31 | 0.047 A450
32 | B32 | 0.045 A450
33 | B33 | 0.047 A450
34 | B34 | 0.045 A450
35 | B35 | 0.046 A450
36 | B36 | 0.045 A450
37 | B37 | 0.046 A450
38 | B38 | 0.045 A450
39 | B39 | 0.045 A450

Target: T3, recombinant human TfR-1 (human, UniProt P02786 89-760)
T3 construct: Recombinant protein coated at 1 ug/ml in the phage ELISA; also called hTfR1; human transferrin receptor-1
T3 sequence (P02786 89-760 limits assumed): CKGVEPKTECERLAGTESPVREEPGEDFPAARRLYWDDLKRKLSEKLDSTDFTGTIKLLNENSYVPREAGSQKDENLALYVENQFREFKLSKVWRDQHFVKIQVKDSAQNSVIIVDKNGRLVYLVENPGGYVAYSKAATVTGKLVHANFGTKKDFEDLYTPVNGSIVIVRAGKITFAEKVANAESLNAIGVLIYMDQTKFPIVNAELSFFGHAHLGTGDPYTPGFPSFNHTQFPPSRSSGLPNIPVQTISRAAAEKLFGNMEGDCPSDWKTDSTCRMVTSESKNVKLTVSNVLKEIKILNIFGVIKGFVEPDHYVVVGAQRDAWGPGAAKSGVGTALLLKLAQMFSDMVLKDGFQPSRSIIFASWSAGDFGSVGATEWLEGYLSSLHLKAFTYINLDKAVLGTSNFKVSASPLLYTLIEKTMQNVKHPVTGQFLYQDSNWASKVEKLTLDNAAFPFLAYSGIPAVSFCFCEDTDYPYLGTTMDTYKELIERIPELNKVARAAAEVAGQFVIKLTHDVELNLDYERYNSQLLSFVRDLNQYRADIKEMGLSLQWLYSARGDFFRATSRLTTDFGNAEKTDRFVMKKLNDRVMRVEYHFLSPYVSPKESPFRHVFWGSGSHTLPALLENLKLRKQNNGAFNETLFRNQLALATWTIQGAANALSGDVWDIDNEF
Test: phage ELISA

Row | Binder | A450
40 | B22 | 0.049 A450
41 | B23 | 0.051 A450
42 | B24 | 0.053 A450
43 | B25 | 0.05 A450
44 | B26 | 0.052 A450
45 | B27 | 0.05 A450
46 | B28 | 0.047 A450
47 | B29 | 0.053 A450
48 | B30 | 0.047 A450
49 | B31 | 0.066 A450
50 | B32 | 0.051 A450
51 | B33 | 0.053 A450
52 | B34 | 0.052 A450
53 | B35 | 0.055 A450
54 | B36 | 0.053 A450
55 | B37 | 0.058 A450
56 | B38 | 0.045 A450
57 | B39 | 0.049 A450
